From PMC8157113

Molecular target: Hepatitis B patients' plasma-derived HBsAg particles (HBV surface antigen, subviral particle of HBV)
Experiment: AlphaScreen
Details: parent: est. 1.3; read off a plot

Substance: Myr47 lipopeptide (HBV pre-S1 domain, myristoylated 2–48 peptide), biotinylated Ala11–15
- response: 1.4 RLU (×10^6)
